In publication PMC2444025:
Where two headings read alike, the source gives them in different places.

Tests used:
[1] = tested on: Immunoglobulin E (IgE), human myeloma (human); settings: in solution; full-length clone; Blocking buffer: 10 mg/mL casein, 0.1% Tween-20, 8.1 mM Na2HPO4 (printed N2HPO4), 1.1 mM KH2PO4, 2.7 mM KCl, 137 mM NaCl (138 mM also listed), 1 mM MgCl2, pH 7.; cited from earlier work
[2] = tested on: Immunoglobulin E (IgE), human myeloma (human); assay: DNA microarray fluorescence; settings: Blocking buffer: 10 mg/mL casein, 0.1% Tween-20, 8.1 mM Na2HPO4 (printed N2HPO4), 1.1 mM KH2PO4, 2.7 mM KCl, 137 mM NaCl (138 mM also listed), 1 mM MgCl2, pH 7.

Sequence: CTACCTACGATCTGACTAGCCAATGAGTGTACCACGTTTATCCGTCCCTCCTAGTGGCGTGCTTACTCTCATGTAGTTCC [D 17.0]
- Kd [1]: 9 nM
- Kd [2]: > 100 nM
